From PMC4125234

Target: CMG2-Fc fusion protein (capillary morphogenesis protein 2 amino acids 1-225 fused to the Fc fragment of human IgG1) (human) (UniProt P58335)
Assay: BLI

Sequence of UniProt P58335 (P58335 34-225): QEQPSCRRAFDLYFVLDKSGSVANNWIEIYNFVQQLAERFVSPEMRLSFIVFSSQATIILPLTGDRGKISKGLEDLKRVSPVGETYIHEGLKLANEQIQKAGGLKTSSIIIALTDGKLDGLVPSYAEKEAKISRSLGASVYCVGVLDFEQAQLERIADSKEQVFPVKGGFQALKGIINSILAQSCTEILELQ

## protective antigen (PA) of anthrax toxin (natural protein)
  Kd: 0.84 nM
  koff: 9.7e-06 s⁻¹
  kon: 11500 M⁻¹ s⁻¹
